Results published in patent US6696546.

Assays:
[1] = system: 8-mer peptide of scrambled sequence (LRSGIKVI)
[2] = molecular target: bacterial produced, purified his-PAP I (UniProt P25500)
[3] = system: 8-mer PAP CRM-derived peptide (SKIRILVG)

bacterial produced, purified his-PAP I, sequence (P25500 other isoform, or with tags, fused parts or gaps): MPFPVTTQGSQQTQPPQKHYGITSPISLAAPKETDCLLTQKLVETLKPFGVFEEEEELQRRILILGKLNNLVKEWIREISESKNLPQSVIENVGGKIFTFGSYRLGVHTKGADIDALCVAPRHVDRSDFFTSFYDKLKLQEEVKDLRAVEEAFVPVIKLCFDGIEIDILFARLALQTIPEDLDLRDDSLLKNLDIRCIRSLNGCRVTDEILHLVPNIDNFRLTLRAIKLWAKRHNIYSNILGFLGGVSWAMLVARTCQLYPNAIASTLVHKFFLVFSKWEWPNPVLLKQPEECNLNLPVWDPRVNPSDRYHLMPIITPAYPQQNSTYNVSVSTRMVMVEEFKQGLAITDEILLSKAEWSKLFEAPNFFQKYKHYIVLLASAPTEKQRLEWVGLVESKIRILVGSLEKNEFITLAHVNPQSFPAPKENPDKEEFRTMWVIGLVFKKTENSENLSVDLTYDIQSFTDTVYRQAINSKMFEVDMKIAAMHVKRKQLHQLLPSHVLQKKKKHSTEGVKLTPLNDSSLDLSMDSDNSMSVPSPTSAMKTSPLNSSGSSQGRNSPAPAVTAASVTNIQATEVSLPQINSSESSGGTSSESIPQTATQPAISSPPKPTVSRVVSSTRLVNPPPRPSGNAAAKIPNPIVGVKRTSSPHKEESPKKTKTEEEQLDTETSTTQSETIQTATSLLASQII

Substance | pRB phosphorylation by cyclin A/cdk2 (in vitro kinase assay, 32P; peptide at 9 µM and 18 µM) [1] | 32P incorporation into PAP (in vitro kinase assay, autoradiography) [2] | pRB phosphorylation by cyclin A/cdk2 (in vitro kinase assay, 32P, autoradiography; peptide at 9 µM and 18 µM) [3] | pRB phosphorylation by cyclin B1/cdc2 (in vitro kinase assay, 32P; peptide at 18 µM) [3]
human cyclin A/flu-tagged cdk2 | a peptide with PAP's CRM scrambled was also tested, and it showed no effect on pRB phosphorylation (lanes 4 and 5) | 32P was efficiently incorporated into PAP | PAP's CRM effectively inhibited pRB phosphorylation by cyclin A/cdk2 (lanes 2 and 3) | 
human cyclin B1/flu epitope-tagged p34cdc2 |  |  |  | PAP's CRM also strongly and specifically inhibited phosphorylation of pRB by cyclin B1/cdc2
